Data reported in patent publication US20220380450A1 (AstraZeneca / MedImmune, published 2022).

Legend:
[1] = molecular target: T1, epidermal growth factor receptor (EGFR), endogenous in NHBE, DHBE and A549 cells (human, UniProt P00533 25-1210); experiment: anti-EGFR (AF231) immunoprecipitation from NHBE lysate, LC-MS; cells stimulated with 30 ng/ml reduced IL-33-01 for 10 min; IL-33 not detected in complex with EGFR
T1 construct: whole, on cells; Endogenous receptor; also called EGF Receptor

[2] = molecular target: T2, RAGE-Fc (R&D Systems #1145-RG) (UniProt Q15109 23-344, limits assumed); experiment: ELISA, FIG. 7A: biotinylated HMGB1 on streptavidin plate, RAGE-Fc
T2 construct: Bought reagent; not shown: Fc part of the bought fusion (detected with anti-human IgG HRP)
T2 sequence (Q15109 23-344 limits assumed): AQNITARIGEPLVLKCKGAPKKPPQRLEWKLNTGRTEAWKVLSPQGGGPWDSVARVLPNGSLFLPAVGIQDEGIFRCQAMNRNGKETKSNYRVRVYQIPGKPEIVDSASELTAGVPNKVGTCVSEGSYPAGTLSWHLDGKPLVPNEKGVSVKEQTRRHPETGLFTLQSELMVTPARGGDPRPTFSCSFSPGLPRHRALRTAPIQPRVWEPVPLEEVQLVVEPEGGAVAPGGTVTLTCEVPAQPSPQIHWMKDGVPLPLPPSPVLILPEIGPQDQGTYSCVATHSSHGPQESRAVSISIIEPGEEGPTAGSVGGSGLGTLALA
Method: (§1) Plates were washed 3× with 200 μl PBS-T (PBS+1% (v/v) Tween-20) and blocked with 300 μl/well blocking buffer (PBS with 1% BSA (Sigma, A9576)) for 1 hour. […] Plates were washed with 200 μl PBS-T three times. […] Plates were washed 3× with PBS-T and developed with TMB, 100 μl/well (Sigma, T0440). The reaction was quenched with 50 μl/well 0.1M H₂SO₄. Absorbance was read at 450 nm on the Cytation Gen5 or similar equipment.

[3] = molecular target: T3, EGFR-Fc (R&D Systems #344-ER-050) (UniProt P00533 25-645); experiment: ELISA: biotinylated HMGB1 on streptavidin plate, EGFR-Fc with untagged RAGE (Sino Biological 11629-HCCH) at 10 µg/mL, anti-human IgG HRP
T3 construct: Bought reagent; not shown: Fc part of the bought fusion (detected with anti-human IgG HRP)
Method: as §1

[4] = molecular target: T2, RAGE-Fc (R&D Systems #1145-RG); experiment: ELISA: biotinylated oxIL-33 on streptavidin plate, RAGE-Fc at 10 µg/mL, anti-human IgG HRP
Method: as §1

B1: Untagged IL33-01 (ligand)
chain: SITGISPITEYLASLSTYNDQSITFALEDESYEIYVEDLKKDEKKDKVLLSYYESQHPSNESGDGVDGKMLMVTLSPTKDFWLHANNKEHSVELHKCEKPLPDQAFFVLHNMHSNCVSFECKTDPGVFIGVKDNHLALIKVDSSENLCTENILFKLSET
notes: Reduced wild type form; also called reduced IL-33; WT IL-33
Q: Does B1 bind [1]?
A: no binding

B2: HMGB1 (R&D systems 1690-HMB-050), biotinylated (ligand, UniProt P09429 1-215, looked up)
chain: MGKGDPKKPRGKMSSYAFFVQTCREEHKKKHPDASVNFSEFSKKCSERWKTMSAKEKGKFEDMAKADKARYEREMKTYIPPKGETKKKFKDPNAPKRPPSAFFLFCSEYRPKIKGEHPGLSIGDVAKKLGEMWNNTAADDKQPYEKKAAKLKEKYEKDIAAYRAKGKPDAAKKGVVKAEKSKKKKEEEEDEEDEEDEEEEEDEEDEDEEEDDDDE
modifications: biotinylated via free amines (EZ link Sulfo-NHS-LC-Biotin)
notes: Immobilised on streptavidin plates in the ELISA of section 10; called a known RAGE ligand / bona fide RAGE agonist
Q: Does B2 bind [2]?
A: binds

Q: Does B2 bind [3]?
A: no binding (tested: 10 µg/mL)

B3: Avitag_IL-33-01 (oxidised IL-33) (ligand)
chain: MHHHHHHHHHHAAGLNDIFEAQKIEWHEAAIEGRSITGISPITEYLASLSTYNDQSITFALEDESYEIYVEDLKKDEKKDKVLLSYYESQHPSNESGDGVDGKMLMVTLSPTKDFWLHANNKEHSVELHKCEKPLPDQAFFVLHNMHSNCVSFECKTDPGVFIGVKDNHLALIKVDSSENLCTENILFKLSET
modifications: biotinylated on the Avitag with BirA; oxidised (disulphide bonded) form
notes: also called oxIL-33; biotinylated oxidised N-terminal tagged His10/Avitag IL33-01
Q: Does B3 bind [4]?
A: binds
